Source: patent US20200148733A1

Target: human IL-23 (human) (UniProt Q9NPF7)
Experiment: cell-based or functional assay

human IL-23 (human), sequence (Q9NPF7 20-189, chain 1 of 2): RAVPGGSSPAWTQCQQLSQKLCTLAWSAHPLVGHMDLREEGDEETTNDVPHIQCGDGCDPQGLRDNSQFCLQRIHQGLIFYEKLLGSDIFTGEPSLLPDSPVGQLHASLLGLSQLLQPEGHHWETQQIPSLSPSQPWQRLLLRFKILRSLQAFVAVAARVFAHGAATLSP
human IL-23 (human), sequence (P29460 23-328, chain 2 of 2, further chain): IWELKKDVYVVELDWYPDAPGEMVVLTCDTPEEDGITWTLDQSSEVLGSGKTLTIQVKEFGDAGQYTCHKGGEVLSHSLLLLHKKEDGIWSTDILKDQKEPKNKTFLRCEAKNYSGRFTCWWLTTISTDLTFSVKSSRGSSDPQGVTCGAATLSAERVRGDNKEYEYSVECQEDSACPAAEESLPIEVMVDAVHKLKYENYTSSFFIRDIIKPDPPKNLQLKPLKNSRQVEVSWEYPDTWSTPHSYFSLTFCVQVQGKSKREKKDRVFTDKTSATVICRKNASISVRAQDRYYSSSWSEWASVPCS

Q: Which results are given for “benchmark antibody ustekinumab (Stelara, obtained from Janssen-Cilag)”?
A: EC50 [nM] AVERAGE, hIL-23-induced proliferation of Ba/F3 cells expressing hIL-23R and hIL-12Rβ1: 2.4 nM; EC50 [nM] Exp 1, hIL-23-induced proliferation of Ba/F3 cells expressing hIL-23R and hIL-12Rβ1: 1.9 nM; EC50 [nM] Exp 2, hIL-23-induced proliferation of Ba/F3 cells expressing hIL-23R and hIL-12Rβ1: 2.3 nM; EC50 [nM] Exp 3, hIL-23-induced proliferation of Ba/F3 cells expressing hIL-23R and hIL-12Rβ1: 3.5 nM; EC50 [nM] Exp 4, hIL-23-induced proliferation of Ba/F3 cells expressing hIL-23R and hIL-12Rβ1: 2 nM; IC50, hIL-23-induced proliferation of Ba/F3 cells expressing hIL-23R and hIL-12Rβ1: 11.1 nM
